Experimental data as given in publication PMC8390522, “The phototroph-specific β-hairpin structure of the γ subunit of FoF1-ATP synthase is important for efficient ATP synthesis of cyanobacteria” (The Journal of Biological Chemistry, 2021).

Biological target: the molecule itself
Test: SDS-PAGE with immunoblot (oligomer resistant to SDS); purified FoF1 on 16% polyacrylamide gels, immunoblot with anti-c-subunit antibodies; the c subunit runs as a ring above the α subunit

B1: c subunit of FoF1 ATP synthase of Synechocystis sp. PCC 6803 (natural protein, Synechocystis sp. PCC 6803 (endogenous), UniProt P27182 1-81, looked up)
chain: MDSTVAAASVIAAALAVGLGAIGPGIGQGNASGQAVSGIARQPEAEGKIRGTLLLTLAFMESLTIYGLVIALVLLFANPFA
notes: ATP synthase c subunit, Synechocystis sp; Forms the c-ring; also called ssl2615; c-ring; source: endogenous, Synechocystis sp
binding result: binds
